In patent publication US20100260668A1 (published 2010):

Target: T1, DLL4 ECD His tag (UniProt Q9NR61 27-529, limits assumed)
T1 construct: extracellular domain; also called DLL ECD His tag
Test: SPR (Biacore), DVD-Ig captured, DLL4 as analyte

Binder	Kd	koff	kon
DVD507 (bispecific antibody, human IgG1, kappa, L234A L235A, HC linker short, LC linker long; also called DVD-Ig DVD507) heavy: not shown light: DIQMTQSSSYLSVSLGGRVTITCKASDHINNWLAWYQQKPGNAPRLLISGATSLETGVPSRFSGSGSGKDYTLSITSLQTEDVATYYCQQYWSIPLTFGAGTKLELKRTVAAPSVFIFPPDIQMTQSPSSLSASVGDRVTITCRASQDVSTAVAWYQQKPGKAPKLLIYSASFLYSGVPSRFSGSGSGTDFTLTISSLQPEDFATYYCQQSYTTPPTFGQGTKVEIKRTVAAPSVFIFPPSDEQLKSGTASVVCLLNNFYPREAKVQWKVDNALQSGNSQESVTEQDSKDSTYSLSSTLTLSKADYEKHKVYACEVTHQGLSSPVTKSFNRGEC	0.265 nM	7.16e-05 s⁻¹	270000 M⁻¹ s⁻¹
DVD466 (bispecific antibody, human IgG1, kappa, HC linker short, LC linker short; also called DVD-Ig DVD466) heavy: not shown light: DIQMTQSPSSLSASVGDRVTITCRASQDVSTAVAWYQQKPGKAPKLLIYSASFLYSGVPSRFSGSGSGTDFTLTISSLQPEDFATYYCQQSYTTPPTFGQGTKVEIKRTVAAPDIQMTQSPSSLSASVGDRVTITCRASQDVSTAVAWYQQKPGKAPKLLIYSASFLYSGVPSRFSGSGSGTDFTLTISSLQPEDFATTYYCQQSYTGTVTFGQGTKVEIKRTVAAPSVFIFPPSDEQLKSGTASVVCLLNNFYPREAKVQWKVDNALQSGNSQESVTEQDSKDSTYSLSSTLTLSKADYEKHKVYACEVTHQGLSSPVTKSFNRGEC	1.25 nM	0.000139 s⁻¹	111000 M⁻¹ s⁻¹
DVD472 (bispecific antibody, human IgG1, kappa, HC linker long, LC linker long; also called DVD-Ig DVD472) heavy: not shown light: DIQMTQSPSSLSASVGDRVTITCRASQDVSTAVAWYQQKPGKAPKLLIYSASFLYSGVPSRFSGSGSGTDFTLTISSLQPEDFATYYCQQSYTTPPTFGQGTKVEIKRTVAAPSVFIFPPDIQMTQSPSSLSASVGDRVTITCRASQDVSTAVAWYQQKPGKAPKLLIYSASFLYSGVPSRFSGSGSGTDFTLTISSLQPEDFATTYYCQQSYTGTVTFGQGTKVEIKRTVAAPSVFIFPPSDEQLKSGTASVVCLLNNFYPREAKVQWKVDNALQSGNSQESVTEQDSKDSTYSLSSTLTLSKADYEKHKVYACEVTHQGLSSPVTKSFNRGEC	0.881 nM	8.64e-05 s⁻¹	98000 M⁻¹ s⁻¹
DVD478 (bispecific antibody, human IgG1, kappa, HC linker long, LC linker short; also called DVD-Ig DVD478) heavy: not shown light: DIQMTQSPSSLSASVGDRVTITCRASQDVSTAVAWYQQKPGKAPKLLIYSASFLYSGVPSRFSGSGSGTDFTLTISSLQPEDFATYYCQQSYTTPPTFGQGTKVEIKRTVAAPDIQMTQSPSSLSASVGDRVTITCRASQDVSTAVAWYQQKPGKAPKLLIYSASFLYSGVPSRFSGSGSGTDFTLTISSLQPEDFATTYYCQQSYTGTVTFGQGTKVEIKRTVAAPSVFIFPPSDEQLKSGTASVVCLLNNFYPREAKVQWKVDNALQSGNSQESVTEQDSKDSTYSLSSTLTLSKADYEKHKVYACEVTHQGLSSPVTKSFNRGEC	2.22 nM	0.000167 s⁻¹	75200 M⁻¹ s⁻¹
DVD484 (bispecific antibody, human IgG1, kappa, HC linker short, LC linker long; also called DVD-Ig DVD484) heavy: not shown light: DIQMTQSPSSLSASVGDRVTITCRASQDVSTAVAWYQQKPGKAPKLLIYSASFLYSGVPSRFSGSGSGTDFTLTISSLQPEDFATYYCQQSYTTPPTFGQGTKVEIKRTVAAPSVFIFPPDIQMTQSPSSLSASVGDRVTITCRASQDVSTAVAWYQQKPGKAPKLLIYSASFLYSGVPSRFSGSGSGTDFTLTISSLQPEDFATTYYCQQSYTGTVTFGQGTKVEIKRTVAAPSVFIFPPSDEQLKSGTASVVCLLNNFYPREAKVQWKVDNALQSGNSQESVTEQDSKDSTYSLSSTLTLSKADYEKHKVYACEVTHQGLSSPVTKSFNRGEC	2.96 nM	0.000295 s⁻¹	99700 M⁻¹ s⁻¹
DVD444 (bispecific antibody, human IgG1, kappa, HC linker short, LC linker short; also called DVD-Ig DVD444) heavy: not shown light: DIQMTQSPSSLSASVGDRVTITCRASQDVSTAVAWYQQKPGKAPKLLIYSASFLYSGVPSRFSGSGSGTDFTLTISSLQPEDFATYYCQQSYTTPPTFGQGTKVEIKRTVAAPDIVMTQSPDSLAVSLGERATISCRASESVDNYGISFMKWFQQKPGQPPKLLIYAASNQGSGVPDRFSGSGSGTDFTLTISSLQAEDVAVYYCQQSKEVPWTFGGGTKVEIKRTVAAPSVFIFPPSDEQLKSGTASVVCLLNNFYPREAKVQWKVDNALQSGNSQESVTEQDSKDSTYSLSSTLTLSKADYEKHKVYACEVTHQGLSSPVTKSFNRGEC	2.37 nM	0.00034 s⁻¹	143000 M⁻¹ s⁻¹
DVD450 (bispecific antibody, human IgG1, kappa, HC linker long, LC linker long; also called DVD-Ig DVD450) heavy: not shown light: DIQMTQSPSSLSASVGDRVTITCRASQDVSTAVAWYQQKPGKAPKLLIYSASFLYSGVPSRFSGSGSGTDFTLTISSLQPEDFATYYCQQSYTTPPTFGQGTKVEIKRTVAAPSVFIFPPDIVMTQSPDSLAVSLGERATISCRASESVDNYGISFMKWFQQKPGQPPKLLIYAASNQGSGVPDRFSGSGSGTDFTLTISSLQAEDVAVYYCQQSKEVPWTFGGGTKVEIKRTVAAPSVFIFPPSDEQLKSGTASVVCLLNNFYPREAKVQWKVDNALQSGNSQESVTEQDSKDSTYSLSSTLTLSKADYEKHKVYACEVTHQGLSSPVTKSFNRGEC	7.41 nM	0.000251 s⁻¹	33800 M⁻¹ s⁻¹
DVD456 (bispecific antibody, human IgG1, kappa, HC linker long, LC linker short; also called DVD-Ig DVD456) heavy: not shown light: DIQMTQSPSSLSASVGDRVTITCRASQDVSTAVAWYQQKPGKAPKLLIYSASFLYSGVPSRFSGSGSGTDFTLTISSLQPEDFATYYCQQSYTTPPTFGQGTKVEIKRTVAAPDIVMTQSPDSLAVSLGERATISCRASESVDNYGISFMKWFQQKPGQPPKLLIYAASNQGSGVPDRFSGSGSGTDFTLTISSLQAEDVAVYYCQQSKEVPWTFGGGTKVEIKRTVAAPSVFIFPPSDEQLKSGTASVVCLLNNFYPREAKVQWKVDNALQSGNSQESVTEQDSKDSTYSLSSTLTLSKADYEKHKVYACEVTHQGLSSPVTKSFNRGEC	1.66 nM	0.000174 s⁻¹	104000 M⁻¹ s⁻¹
DVD462 (bispecific antibody, human IgG1, kappa, HC linker short, LC linker long; also called DVD-Ig DVD462) heavy: not shown light: DIQMTQSPSSLSASVGDRVTITCRASQDVSTAVAWYQQKPGKAPKLLIYSASFLYSGVPSRFSGSGSGTDFTLTISSLQPEDFATYYCQQSYTTPPTFGQGTKVEIKRTVAAPSVFIFPPDIVMTQSPDSLAVSLGERATISCRASESVDNYGISFMKWFQQKPGQPPKLLIYAASNQGSGVPDRFSGSGSGTDFTLTISSLQAEDVAVYYCQQSKEVPWTFGGGTKVEIKRTVAAPSVFIFPPSDEQLKSGTASVVCLLNNFYPREAKVQWKVDNALQSGNSQESVTEQDSKDSTYSLSSTLTLSKADYEKHKVYACEVTHQGLSSPVTKSFNRGEC	2.98 nM	0.00025 s⁻¹	83900 M⁻¹ s⁻¹
DVD514 (bispecific antibody, human IgG1, lambda, HC linker short, LC linker short; also called DVD-Ig DVD514) heavy: not shown light: DIQMTQSPSSLSASVGDRVTITCRASQDVSTAVAWYQQKPGKAPKLLIYSASFLYSGVPSRFSGSGSGTDFTLTISSLQPEDFATYYCQQSYTTPPTFGQGTKVEIKRTVAAPQAVVTQESALTTSPGETVTLTCRSSTGAVTTSNYANWVQEKPDHLFTGLIGGTNNRAPGVPARFSGSLIGDKAALTITGAQTEDEAIYFCALWYSNHWVFGGGTKLTVLGQPKAAPSVTLFPPSSEELQANKATLVCLISDFYPGAVTVAWKADSSPVKAGVETTTPSKQSNNKYAASSYLSLTPEQWKSHRSYSCQVTHEGSTVEKTVAPTECS	3.48 nM	0.000432 s⁻¹	124000 M⁻¹ s⁻¹
DVD520 (bispecific antibody, human IgG1, kappa, lambda, HC linker long, LC linker long; also called DVD-Ig DVD520) heavy: not shown light: DIQMTQSPSSLSASVGDRVTITCRASQDVSTAVAWYQQKPGKAPKLLIYSASFLYSGVPSRFSGSGSGTDFTLTISSLQPEDFATYYCQQSYTTPPTFGQGTKVEIKRTVAAPSVFIFPPQAVVTQESALTTSPGETVTLTCRSSTGAVTTSNYANWVQEKPDHLFTGLIGGTNNRAPGVPARFSGSLIGDKAALTITGAQTEDEAIYFCALWYSNHWVFGGGTKLTVLGQPKAAPSVTLFPPSSEELQANKATLVCLISDFYPGAVTVAWKADSSPVKAGVETTTPSKQSNNKYAASSYLSLTPEQWKSHRSYSCQVTHEGSTVEKTVAPTECS	3.3 nM	0.000408 s⁻¹	124000 M⁻¹ s⁻¹
DVD526 (bispecific antibody, human IgG1, lambda, HC linker long, LC linker short; also called DVD-Ig DVD526) heavy: not shown light: DIQMTQSPSSLSASVGDRVTITCRASQDVSTAVAWYQQKPGKAPKLLIYSASFLYSGVPSRFSGSGSGTDFTLTISSLQPEDFATYYCQQSYTTPPTFGQGTKVEIKRTVAAPQAVVTQESALTTSPGETVTLTCRSSTGAVTTSNYANWVQEKPDHLFTGLIGGTNNRAPGVPARFSGSLIGDKAALTITGAQTEDEAIYFCALWYSNHWVFGGGTKLTVLGQPKAAPSVTLFPPSSEELQANKATLVCLISDFYPGAVTVAWKADSSPVKAGVETTTPSKQSNNKYAASSYLSLTPEQWKSHRSYSCQVTHEGSTVEKTVAPTECS	5.55 nM	0.000629 s⁻¹	113000 M⁻¹ s⁻¹
DVD532 (bispecific antibody, human IgG1, kappa, lambda, HC linker short, LC linker long; also called DVD-Ig DVD532) heavy: not shown light: DIQMTQSPSSLSASVGDRVTITCRASQDVSTAVAWYQQKPGKAPKLLIYSASFLYSGVPSRFSGSGSGTDFTLTISSLQPEDFATYYCQQSYTTPPTFGQGTKVEIKRTVAAPSVFIFPPQAVVTQESALTTSPGETVTLTCRSSTGAVTTSNYANWVQEKPDHLFTGLIGGTNNRAPGVPARFSGSLIGDKAALTITGAQTEDEAIYFCALWYSNHWVFGGGTKLTVLGQPKAAPSVTLFPPSSEELQANKATLVCLISDFYPGAVTVAWKADSSPVKAGVETTTPSKQSNNKYAASSYLSLTPEQWKSHRSYSCQVTHEGSTVEKTVAPTECS	6.85 nM	0.00081 s⁻¹	118000 M⁻¹ s⁻¹
DVD490 (bispecific antibody, human IgG1, kappa, HC linker short, LC linker short; also called DVD-Ig DVD490) heavy: not shown light: DIQMTQSPSSLSASVGDRVTITCRASQDVSTAVAWYQQKPGKAPKLLIYSASFLYSGVPSRFSGSGSGTDFTLTISSLQPEDFATYYCQQSYTTPPTFGQGTKVEIKRTVAAPDIQMTQSSSYLSVSLGGRVTITCKASDHINNWLAWYQQKPGNAPRLLISGATSLETGVPSRFSGSGSGKDYTLSITSLQTEDVATYYCQQYWSIPLTFGAGTKLELKRTVAAPSVFIFPPSDEQLKSGTASVVCLLNNFYPREAKVQWKVDNALQSGNSQESVTEQDSKDSTYSLSSTLTLSKADYEKHKVYACEVTHQGLSSPVTKSFNRGEC	0.528 nM	7.7e-05 s⁻¹	146000 M⁻¹ s⁻¹
DVD496 (bispecific antibody, human IgG1, kappa, HC linker long, LC linker long; also called DVD-Ig DVD496) heavy: not shown light: DIQMTQSPSSLSASVGDRVTITCRASQDVSTAVAWYQQKPGKAPKLLIYSASFLYSGVPSRFSGSGSGTDFTLTISSLQPEDFATYYCQQSYTTPPTFGQGTKVEIKRTVAAPSVFIFPPDIQMTQSSSYLSVSLGGRVTITCKASDHINNWLAWYQQKPGNAPRLLISGATSLETGVPSRFSGSGSGKDYTLSITSLQTEDVATYYCQQYWSIPLTFGAGTKLELKRTVAAPSVFIFPPSDEQLKSGTASVVCLLNNFYPREAKVQWKVDNALQSGNSQESVTEQDSKDSTYSLSSTLTLSKADYEKHKVYACEVTHQGLSSPVTKSFNRGEC	1.44 nM	0.000172 s⁻¹	120000 M⁻¹ s⁻¹
